Where two headings read alike, the source gives them in different places.

Data on six molecules can be found in article doi:10.1101/426809.

Data set [1] concerns the target HupA-HaloTag (HupA fused through a GS linker to HaloTag with a C-terminal 6xHis tag) (Clostridium difficile 630Δerm). As to the kind of experiment: cross-linking.
For data set [2], the target named is HupA-LgBiT (HupA fused to the large subunit of the bitLuc^opt split luciferase) (Clostridium difficile 630Δerm). As to the kind of experiment: split reporter.
Data set [3] deals with HupA_(6xHis), C. difficile HupA (CD3496) with a 6x histidine tag (Clostridium difficile 630Δerm). As to the kind of experiment: cross-linking.
For data set [4] the target is unchanged. In words: cross-linking. The source holds these as a separate data set.
Data set [5] deals with T1, HupAQED6xHis (Clostridium difficile 630Δerm, UniProt Q180Z4 1-92, R55Q;R58E;R61D).
T1 sequence: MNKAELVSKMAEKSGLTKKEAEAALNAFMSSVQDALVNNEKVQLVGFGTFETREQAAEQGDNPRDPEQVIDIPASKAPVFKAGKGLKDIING
In words: EMSA.

With “HupA-HaloTag (HupA fused through a GS linker to HaloTag with a C-terminal 6xHis tag) (natural protein)”, the stoichiometry N in data set [1] turned out to be 2.

As to “HupA-SmBiT (HupA fused to the small subunit of the bitLuc^opt split luciferase) (natural protein)”, the luciferase activity (LU/OD) after 1 h of induction in data set [2] came out at 265000 LU/OD.

“HupA_(6xHis), C. difficile HupA (CD3496) with a 6x histidine tag (natural protein)”: the stoichiometry N in data set [3] and in data set [4] was 2 each time.

B1: oAF61/oAF62, 71.1% G+C (dsDNA)
DNA 1: CGCCAGGCCAGGGCTGTCACTGTGCAGCTCGTGGACGC
DNA 2: GCGTCCACGAGCTGCACAGTGACAGCCCTGGCCTGGCG
As for B1, the binding result in data set [5] is listed as “no binding”.

B2: oAF63/oAF64, 52.6% G+C (dsDNA)
DNA 1: CATCAGGCAAGAGTAGTCACTGTGTAGCTCGTGGATGC
DNA 2: GCATCCACGAGCTACACAGTGACTACTCTTGCCTGATG
As to B2, in data set [5], the binding result is “no binding”.

B3: oAF65/oAF66, 28.9% G+C (dsDNA)
DNA 1: CATTAAGTATGAGTATTCTATGTATAGATCATTGATGC
DNA 2: GCATCAATGATCTATACATAGAATACTCATACTTAATG
Consider B3, for which the binding result in data set [5] is listed as “no binding”.
